Experimental data as given in patent publication US9188587.

How the values were obtained:
[1] = biological target: I^125-αDTX-labelled VGKCs (Kv1 complexes) in digitonin-solubilised rabbit cortex extract
[2] = biological target: I^125-αDTX-labelled VGKCs (Kv1 complexes) in digitonin-solubilised rabbit cortex extract; remark: listed apart in the source

goat anti Lgi1 antibody (Santa Cruz C19 sc-9583 and N18 sc-9581)
percent of total I^125-αDTX binding sites precipitated [1]: > 60% | percent of αDTX binding sites immunoprecipitated [2]: 61%
